This experiment addresses SARS-CoV-2 S1 spike domain. The experiment can be described thus: SPR. The note with it: 2.5 µM SARS-CoV-2-S1; parent: est. 450; read off a plot.

“cellugyrin N-Term peptide Y6A; K10A; F15A”: the response was 45 RU.

For the origin of these results see paper PMC11063343.
